The values below come from the supplement of paper PMC11316812.

± gives the standard deviation of the averaged measurements.

One data set deals with MCF7. Nature of the data set: percentage of EdU-negative (G0-arrested) nuclei per well, 72 h; higher = more G0 arrest. The following applies: reference: sequence is the full UniProt precursor, the tested protein was the secreted form or ectodomain.
The next data set concerns hTERT-HMEC. Described as above. Conditions: reference: sequence is the full UniProt precursor, the tested protein was the secreted form or ectodomain.
Setting [1] is: protein concentration 0.0171429 µM.
[2] abbreviates: protein concentration 0.171429 µM.
Where [3] appears, read: protein concentration 0.0225 µM.
The mark [4] stands for this setting: protein concentration 0.03125 µM.
[5] abbreviates: protein concentration 0.3125 µM.
Where [6] appears, read: protein concentration 0.0175 µM.
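Note: secreted proteins added to cultured cells, EdU pulse at the end, nuclei found by Hoechst imaging, EdU status from nuclear versus surrounding ring intensity ratio, PBS as neutral control.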

As to “MTPPRLFWVWLLVAGTQGVNDGDMRLADGGATNQGRVEIFYRGQWGTVCDNLWDLTDASVVCRALGFENATQALGRAAFGQGSGPIMLDEVQCTGTEASLADCKSLGWLKSNCRHERDAGVVCTNETRSTHTLDLSRELSEALGQIFDSQRGCDLSISVNVQGEDALGFCGHTVILTANLEAQALWKEPGSNVTMSVDAECVPMVRDLLRYFYSRRIDITLSSVKCFHKLASAYGARQLQGYCASLFAILLPQDPSFQMPLDLYAYAVATGDALLEKLCLQFLAWNFEALTQAEAWPSVPTDLLQLLLPRSDLAVPSELALLKAVDTWSWGERASHEEVEGLVEKIRFPMMLPEELFELQFNLSLYWSHEALFQKKTLQALEFHTVPFQLLARYKGLNLTEDTYKPRIYTSPTWSAFVTDSSWSARKSQLVYQSRRGPLVKYSSDYFQAPSDYRYYPYQSFQTPQHPSFLFQDKRVSWSLVYLPTIQSCWNYGFSCSSDELPVLGLTKSGGSDRTIAYENKALMLCEGLFVADVTDFEGWKAAIPSALDTNSSKSTSSFPCPAGHFNGFRTVIRPFYLTNSSGVD”, the “percentage of EdU-negative” value in the data set on MCF7 (setting [1]) is 23.8 ± 3.7%; in the data set with MCF7 (setting [2]), 27.9 ± 1.7%; in the data set on hTERT-HMEC (setting [1]), 6.12 ± 0.82%; with hTERT-HMEC (setting [2]) it was 8.84 ± 1.8%.

On to “MTPSRLPWLLSWVSATAWRAARSPLLCHSLRKTSSSQGGKSELVKQSLKKPKLPEGRFDAPEDSHLEKEPLEKFPDDVNPVTKEKGGPRGPEPTRYGDWERKGRCIDF [Q5VUM1]”, for which the “percentage of EdU-negative” value in the data set on MCF7 (setting [3]) turned out to be 28 ± 2.2%; in the data set on MCF7 (protein concentration 0.225 µM) it was 25.4 ± 1.5%; with hTERT-HMEC (setting [3]) it was 5.46 ± 0.82%; in the data set on hTERT-HMEC (protein concentration 0.225 µM), 5.79 ± 0.17%.

For the sequence “MTRALCSALRQALLLLAAAAELSPGLKCVCLLCDSSNFTCQTEGACWASVMLTNGKEQVIKSCVSLPELNAQVFCHSSNNVTKTECCFTDFCNNITLHLPTASPNAPKLGPMELAIIITVPVCLLSIAAMLTVWACQGRQCSYRKKKRPNVEEPLSECNLVNAGKTLKDLIYDVTASGSGSGLPLLVQRTIARTIVLQEIVGKGRFGEVWHGRWCGEDVAVKIFSSRDERSWFREAEIYQTVMLRHENILGFIAADNKDNGTWTQLWLVSEYHEQGSLYDYLNRNIVTVAGMIKLALSIASGLAHLHMEIVGTQGKPAIAHRDIKSKNILVKKCETCAIADLGLAVKHDSILNTIDIPQNPKVGTKRYMAPEMLDDTMNVNIFESFKRADIYSVGLVYWEIARRCSVGGIVEEYQLPYYDMVPSDPSIEEMRKVVCDQKFRPSIPNQWQSCEALRVMGRIMRECWYANGAARLTALRIKKTISQLCVKEDCKA [Q8NER5]”, the “percentage of EdU-negative” value worked out at 24.6 ± 0.8% in the data set with MCF7 (setting [4]), 26 ± 0.41% in the data set on MCF7 (setting [5]), 4.41 ± 0.6% with hTERT-HMEC (setting [4]) and 4.47 ± 0.65% in the data set with hTERT-HMEC (setting [5]).

In the case of “MTRGGPGGRPGLPQPPPLLLLLLLLPLLLVTAEPPKPAGVYYATAYWMPAEKTVQVKNVMDKNGDAYGFYNNSVKTTGWGILEIRAGYGSQTLSNEIIMFVAGFLEGYLTAPHMNDHYTNLYPQLITKPSIMDKVQDFMEKQDKWTRKNIKEYKTDSFWRHTGYVMAQIDGLYVGAKKRAILEGTKPMTLFQIQFLNSVGDLLDLIPSLSPTKNGSLKVFKRWDMGHCSALIKVLPGFENILFAHSSWYTYAAMLRIYKHWDFNVIDKDTSSSRLSFSSYPGFLESLDDFYILSSGLILLQTTNSVFNKTLLKQVIPETLLSWQRVRVANMMADSGKRWADIFSKYNSGTYNNQYMVLDLKKVKLNHSLDKGTLYIVEQIPTYVEYSEQTDVLRKGYWPSYNVPFHEKIYNWSGYPLLVQKLGLDYSYDLAPRAKIFRRDQGKVTDTASMKYIMRYNNYKKDPYSRGDPCNTICCREDLNSPNPSPGGCYDTKVADIYLASQYTSYAISGPTVQGGLPVFRWDRFNKTLHQGMPEVYNFDFITMKPILKLDIK [Q6P4A8]”, the “percentage of EdU-negative” value with MCF7 (setting [6]) amounted to 25.6 ± 2.5%; in the data set on MCF7 (protein concentration 0.175 µM), 27.7 ± 0.8%; in the data set on hTERT-HMEC (setting [6]) it was 4.42 ± 0.062%; in the data set on hTERT-HMEC (protein concentration 0.175 µM), 19.7 ± 1.7%.

With “MTRTYENFQYLENKVKVQGFKNGPLPLQSLLQRLCSGPCHLLLSLGLGLLLLVIICVVGFQNSKFQRDLVTLRTDFSNFTSNTVAEIQALTSQGSSLEETIASLKAEVEGFKQERQAGVSELQEHTTQKAHLGHCPHCPSVCVPVHSEMLLRVQQLVQDLKKLTCQVATLNNNASTEGTCCPVNWVEHQDSCYWFSHSGMSWAEAEKYCQLKNAHLVVINSREEQNFVQKYLGSAYTWMGLSDPEGAWKWVDGTDYATGFQNWKPGQPDDWQGHGLGGGEDCAHFHPDGRWNDDVCQRPYHWVCEAGLGQTSQESH [Q8IUN9]”, the “percentage of EdU-negative” value came to 24.9 ± 1% with MCF7 (setting [3]), 26.5 ± 0.74% with MCF7 (protein concentration 0.225 µM), 5.25 ± 0.3% with hTERT-HMEC (setting [3]) and 4.954 ± 0.011% with hTERT-HMEC (protein concentration 0.225 µM).

Consider “MTSHYVIAIFALMSSCLATAGPEPGALCELSPVSASHPVQALMESFTVLSGCASRGTTGLPQEVHVLNLRTAGQGPGQLQREVTLHLNPISSVHIHHKSVVFLLNSPHPLVWHLKTERLATGVSRLFLVSEGSVVQFSSANFSLTAETEERNFPHGNEHLLNWARKEYGAVTSFTELKIARNIYIKVGEDQVFPPKCNIGKNFLSLNYLAEYLQPKAAEGCVMSSQPQNEEVHIIELITPNSNPYSAFQVDITIDIRPSQEDLEVVKNLILILKCKKSVNWVIKSFDVKGSLKIIAPNSIGFGKESERSMTMTKSIRDDIPSTQGNLVKWALDNGYSPITSYTMAPVANRFHLRLENNAEEMGDEEVHTIPPELRILLDPGALPALQNPPIRGGEGQNGGLPFPFPDISRRVWNEEGEDGLPRPKDPVIPSIQLFPGLREPEEVQGSVDIALSVKCDNEKMIVAVEKDSFQASGYSGMDVTLLDPTCKAKMNGTHFVLESPLNGCGTRPRWSALDGVVYYNSIVIQVPALGDSSGWPDGYEDLESGDNGFPGDMDEGDASLFTRPEIVVFNCSLQQVRNPSSFQEQPHGNITFNMELYNTDLFLVPSQGVFSVPENGHVYVEVSVTKAEQELGFAIQTCFISPYSNPDRMSHYTIIENICPKDESVKFYSPKRVHFPIPQADMDKKRFSFVFKPVFNTSLLFLQCELTLCTKMEKHPQKLPKCVPPDEACTSLDASIIWAMMQNKKTFTKPLAVIHHEAESKEKGPSMKEPNPISPPIFHGLDTLTVMGIAFAAFVIGALLTGALWYIYSHTGETAGRQQVPTSPPASENSSAAHSIGSTQSTPCSSSSTA”, for which the “percentage of EdU-negative” value in the data set on MCF7 (setting [1]) stood at 24.6 ± 1.9%; with MCF7 (setting [2]), 23.7 ± 2.4%; with hTERT-HMEC (setting [1]), 4.94 ± 0.63%; with hTERT-HMEC (setting [2]), 5.484 ± 0.021%.
